# Measurements taken from the RNAGym collection of RNA variant scans (doi:10.7554/elife.80360).
# B1: CPEB3 Ribozyme (parent)
# chain: GGGGGCCACAGCAGAAGCGUUCACGUCGCGGCCCCUGUCAGAUUCUGGUGAAUCUGCGAAUUCUGCUGU
# Variants of: B1
# Test: self-cleavage, relative activity (ratio to wild type); higher = more cleavage; co-transcriptional
row,Variant,self-cleavage
1,C29G C34U,0.495
2,C29G C39G,0.267
3,C29G C39U,0.251
4,C29G C45U,0.601
5,C29G C54G,0.246
6,C29G C54U,0.545
7,C29G C63G,0.183
8,C29G C66G,0.369
9,C29G G30U,0.219
10,C29G G31C,0.13
11,C29G G37A,0.178
12,C29G G37C,0.169
13,C29G G41C,0.173
14,C29G G41U,0.21
15,C29G G50C,0.457
16,C29G G58A,0.327
17,C29G G68U,0.8
18,C29G U36C,0.286
19,C29G U38A,0.316
20,C29G U43A,0.186
21,C29G U43C,0.428
22,C29G U44G,0.361
23,C29G U46C,0.473
24,C29G U49C,0.544

row,Variant,self-cleavage
1,C29G U61C,0.221
2,C29G U61G,0.348
3,C29G U64A,0.191
4,C29G U67A,0.517
5,C29G U67C,0.47
6,C29G U67G,0.482
7,C29G U69G,0.703
8,C29U A42C,0.229
9,C29U A42G,0.246
10,C29U A51C,0.356
11,C29U A51U,0.432
12,C29U A59U,0.232
13,C29U A60C,0.223
14,C29U C32A,0.295
15,C29U C33U,0.511
16,C29U C35A,0.186
17,C29U C35G,0.237
18,C29U C39G,0.163
19,C29U C54A,0.169
20,C29U C63A,0.176
21,C29U C63G,0.198
22,C29U C66G,0.206
23,C29U G30A,0.283
24,C29U G31C,0.158

row,Variant,self-cleavage
1,C29U G41U,0.191
2,C29U G47U,0.631
3,C29U G48C,0.61
4,C29U G56C,0.26
5,C29U G58C,0.398
6,C29U G68C,0.571
7,C29U U36C,0.244
8,C29U U36G,0.147
9,C29U U38A,0.2
10,C29U U43A,0.171
11,C29U U43G,0.168
12,C29U U44A,0.26
13,C29U U46C,0.433
14,C29U U46G,0.571
15,C29U U53A,0.267
16,C29U U53C,0.143
17,C29U U53G,0.264
18,C29U U61C,0.183
19,C29U U62A,0.15
20,C29U U64A,0.171
21,C29U U64G,0.206
22,G30A A42C,0.623
23,G30A A42U,0.677
24,G30A A51C,0.718

row,Variant,self-cleavage
1,G30A A52G,0.852
2,G30A A59C,0.275
3,G30A A59G,0.708
4,G30A A60G,0.395
5,G30A A60U,0.367
6,G30A C33G,0.227
7,G30A C34A,0.286
8,G30A C34G,0.278
9,G30A C35G,0.186
10,G30A C35U,0.533
11,G30A C39A,0.362
12,G30A C45A,0.807
13,G30A C54G,0.333
14,G30A C57A,0.258
15,G30A C57G,0.247
16,G30A C63G,0.483
17,G30A C63U,0.839
18,G30A C66A,0.559
19,G30A G31A,0.365
20,G30A G31U,0.215
21,G30A G37A,0.23
22,G30A G37C,0.19
23,G30A G37U,0.196
24,G30A G41U,0.341

row,Variant,self-cleavage
1,G30A G47A,0.916
2,G30A G47U,0.939
3,G30A G48A,0.951
4,G30A G50U,0.856
5,G30A G58A,0.682
6,G30A G58C,0.858
7,G30A G58U,0.896
8,G30A G65U,0.436
9,G30A G68C,1.01
10,G30A G68U,1
11,G30A U36C,0.449
12,G30A U36G,0.166
13,G30A U38A,0.621
14,G30A U44G,0.579
15,G30A U46G,0.888
16,G30A U49A,0.89
17,G30A U55A,0.638
18,G30A U61C,0.39
19,G30A U61G,0.447
20,G30A U62A,0.445
21,G30A U62G,0.413
22,G30A U64A,0.634
23,G30A U64G,0.624
24,G30A U67C,0.959

row,Variant,self-cleavage
1,G30A U69G,1.01
2,G30C A40U,0.296
3,G30C A42U,0.41
4,G30C A51U,0.61
5,G30C C32G,0.225
6,G30C C32U,0.636
7,G30C C33A,0.248
8,G30C C33G,0.302
9,G30C C34G,0.259
10,G30C C35A,0.254
11,G30C C35U,0.398
12,G30C C39G,0.403
13,G30C C45G,0.578
14,G30C C54A,0.346
15,G30C C57A,0.302
16,G30C C57U,0.244
17,G30C C63A,0.292
18,G30C G31U,0.224
19,G30C G37A,0.146
20,G30C G37C,0.204
21,G30C G37U,0.175
22,G30C G41C,0.232
23,G30C G41U,0.336
24,G30C G48U,0.706

row,Variant,self-cleavage
1,G30C G50A,0.621
2,G30C G50C,0.536
3,G30C G50U,0.679
4,G30C G56C,0.236
5,G30C G56U,0.404
6,G30C G65A,0.459
7,G30C G65U,0.371
8,G30C U36C,0.273
9,G30C U43A,0.438
10,G30C U44A,0.594
11,G30C U44C,0.466
12,G30C U44G,0.549
13,G30C U46A,0.706
14,G30C U46C,0.613
15,G30C U53A,0.437
16,G30C U61A,0.258
17,G30C U61C,0.242
18,G30C U62C,0.424
19,G30C U64A,0.467
20,G30C U64C,0.478
21,G30C U64G,0.455
22,G30C U67C,0.883
23,G30C U67G,0.94
24,G30U A40C,0.192

row,Variant,self-cleavage
1,G30U A40U,0.214
2,G30U A42G,0.27
3,G30U A52U,0.342
4,G30U A60G,0.176
5,G30U C32G,0.216
6,G30U C32U,0.181
7,G30U C34A,0.259
8,G30U C35U,0.292
9,G30U C45A,0.335
10,G30U C45U,0.329
11,G30U C57G,0.186
12,G30U C63U,0.279
13,G30U G31U,0.18
14,G30U G37U,0.166
15,G30U G41C,0.209
16,G30U G47A,0.436
17,G30U G47C,0.395
18,G30U G50A,0.335
19,G30U G50C,0.294
20,G30U G50U,0.47
21,G30U G56U,0.231
22,G30U G65A,0.203
23,G30U G68A,0.88
24,G30U G68U,0.78

row,Variant,self-cleavage
1,G30U U46G,0.441
2,G30U U61A,0.177
3,G30U U61G,0.215
4,G30U U62A,0.2
5,G30U U64C,0.353
6,G30U U67C,0.624
7,G30U U67G,0.724
8,G30U U69C,0.865
9,G30U U69G,0.792
10,G31A A42C,0.601
11,G31A A52G,0.907
12,G31A A52U,0.888
13,G31A A59G,0.811
14,G31A A60C,0.304
15,G31A A60U,0.322
16,G31A C32G,0.259
17,G31A C33G,0.282
18,G31A C34G,0.262
19,G31A C34U,0.605
20,G31A C35A,0.232
21,G31A C35U,0.522
22,G31A C39A,0.494
23,G31A C57G,0.254
24,G31A C63A,0.32

row,Variant,self-cleavage
1,G31A C66A,0.7
2,G31A C66U,0.913
3,G31A G37U,0.213
4,G31A G41A,0.525
5,G31A G47A,0.897
6,G31A G47C,0.921
7,G31A G48A,0.945
8,G31A G48C,0.9
9,G31A G58C,0.812
10,G31A G58U,0.974
11,G31A G65A,0.711
12,G31A G65C,0.539
13,G31A G65U,0.594
14,G31A U38A,0.726
15,G31A U38G,0.245
16,G31A U46C,0.9
17,G31A U46G,0.962
18,G31A U53G,0.573
19,G31A U55A,0.662
20,G31A U55C,0.547
21,G31A U55G,0.569
22,G31A U61C,0.327
23,G31A U64A,0.511
24,G31A U64C,0.757

row,Variant,self-cleavage
1,G31A U67G,1.01
2,G31A U69A,0.991
3,G31A U69C,1.03
4,G31C A40C,0.203
5,G31C A40U,0.165
6,G31C A42C,0.227
7,G31C A51C,0.161
8,G31C A51G,0.364
9,G31C A51U,0.237
10,G31C A59G,0.255
11,G31C C32G,0.249
12,G31C C33U,0.45
13,G31C C34A,0.341
14,G31C C35G,0.141
15,G31C C54U,0.308
16,G31C C57A,0.163
17,G31C C57U,0.184
18,G31C G41U,0.217
19,G31C G50A,0.214
20,G31C G58C,0.179
21,G31C G58U,0.209
22,G31C G65C,0.185
23,G31C G68A,0.515
24,G31C U38A,0.237

row,Variant,self-cleavage
1,G31C U43A,0.193
2,G31C U44C,0.27
3,G31C U53C,0.237
4,G31C U53G,0.139
5,G31C U55G,0.136
6,G31C U62A,0.151
7,G31C U62C,0.258
8,G31C U64G,0.251
9,G31C U67C,0.358
10,G31C U69A,0.381
11,G31C U69C,0.451
12,G31U A40U,0.352
13,G31U A42U,0.485
14,G31U A51C,0.628
15,G31U A51U,0.805
16,G31U A52C,0.556
17,G31U A59C,0.356
18,G31U A59G,0.514
19,G31U A60C,0.291
20,G31U C32A,0.321
21,G31U C33A,0.235
22,G31U C34U,0.363
23,G31U C35A,0.26
24,G31U C35U,0.363

row,Variant,self-cleavage
1,G31U C45U,0.789
2,G31U C54A,0.306
3,G31U C57G,0.236
4,G31U C63A,0.25
5,G31U C63G,0.454
6,G31U G37A,0.206
7,G31U G41A,0.348
8,G31U G41C,0.283
9,G31U G50A,0.758
10,G31U G56C,0.385
11,G31U G58A,0.482
12,G31U G58U,0.86
13,G31U G65A,0.517
14,G31U G68C,0.958
15,G31U G68U,0.974
16,G31U U36C,0.516
17,G31U U44A,0.577
18,G31U U44G,0.3
19,G31U U49G,0.421
20,G31U U53C,0.354
21,G31U U55A,0.428
22,G31U U61C,0.258
23,G31U U62A,0.27
24,G31U U64G,0.479

row,Variant,self-cleavage
1,G31U U67C,0.939
2,G31U U69G,1.02
3,C32A A42G,0.448
4,C32A A51C,0.391
5,C32A A51U,0.566
6,C32A A52G,0.431
7,C32A A59U,0.445
8,C32A A60G,0.454
9,C32A C33G,0.258
10,C32A C34G,0.228
11,C32A C35G,0.163
12,C32A C35U,0.333
13,C32A C39G,0.6
14,C32A C45A,0.586
15,C32A C45U,0.753
16,C32A C57A,0.245
17,C32A C63A,0.317
18,C32A C66G,0.708
19,C32A G37A,0.263
20,C32A G37U,0.18
21,C32A G41C,0.322
22,C32A G47U,0.897
